B1: DKF-1 ULD (DKF-1^1–94) [C. elegans] / itself (parent)
chain: MDGSQGSTDYGDHVVLRYGGTREMVPLIRHEQMLDMLMERARQIVQGFGNLDTRNMYLFRHEYNSPTLLYPITSASQITSGSILEIILVDRTEA
B2: DKF-1 ULD–C1a (DKF-1^1–151) [C. elegans] / itself (parent)
chain: MDGSQGSTDYGDHVVLRYGGTREMVPLIRHEQMLDMLMERARQIVQGFGNLDTRNMYLFRHEYNSPTLLYPITSASQITSGSILEIILVDRTEAAVIPHVVEPESYMRPTFCDFCGEMLTGLMRQGVKCKNCNGNFHKRCSNAARNNCGAP

Experiments:
Assay in all cases: SEC-MALS (static light scattering)
Details in all cases: with itself
itself [1] = variants of: B1
itself [2] = variants of: B1; remark: listed apart in the source
itself [3] = variants of: B2; remark: listed apart in the source
itself [4] = variants of: B2; remark: listed apart in the source

Variant | screen value (itself [1]) | screen value (itself [2]) [kDa] | screen value (itself [3]) | screen value (itself [4]) [kDa]
MDGSQGSTDYGDHVVLRYGGTREMVPLIRHEQMLDMLMERARQIVQGFGNLDTRNMYLERHEYNSPTLLYPITSASQITSGSILEIILVDRTEA | 1.04 | 11.3 |  | 
MDGSQGSTDYGDHVVLRYGGTREMVPLIRHEQMLDMLMERARQIVQGFGNLDTRNMYLERHEYNSPTLLYPITSASQITSGSILEIILVDRTEAAVIPHVVEPESYMRPTFCDFCGEMLTGLMRQGVKCKNCNGNFHKRCSNAARNNCGAP |  |  | 1.09 | 18.7
